# Experimental data: patent publication US20250277030A1 (Zymeworks, published 2025)
# B1: v29456 humanized anti-NaPi2b antibody (H1L2) (antibody, human IgG1, kappa)
# heavy: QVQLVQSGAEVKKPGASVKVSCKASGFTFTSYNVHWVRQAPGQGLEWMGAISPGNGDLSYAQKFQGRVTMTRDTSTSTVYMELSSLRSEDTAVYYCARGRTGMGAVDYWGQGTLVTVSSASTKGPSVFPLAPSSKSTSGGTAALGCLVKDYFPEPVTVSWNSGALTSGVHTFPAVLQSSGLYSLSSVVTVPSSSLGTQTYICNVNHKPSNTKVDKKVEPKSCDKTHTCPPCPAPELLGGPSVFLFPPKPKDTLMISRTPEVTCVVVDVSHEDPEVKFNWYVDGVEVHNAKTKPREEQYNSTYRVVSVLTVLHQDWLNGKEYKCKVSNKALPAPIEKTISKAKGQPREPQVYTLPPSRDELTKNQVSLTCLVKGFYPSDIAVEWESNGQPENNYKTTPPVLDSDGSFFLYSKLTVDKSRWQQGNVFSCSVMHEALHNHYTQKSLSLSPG
# light: DVQMTQSPSSLSASVGDRVTITCRASQDVYSYLNWYQQKPGKAVKLLIYYTSRLQSGVPSRFSGSGSGTDYTLTISSLQPEDFATYYCQQYNIFPWTFGQGTKLEIKRTVAAPSVFIFPPSDEQLKSGTASVVCLLNNFYPREAKVQWKVDNALQSGNSQESVTEQDSKDSTYSLSSTLTLSKADYEKHKVYACEVTHQGLSSPVTKSFNRGEC
# Molecular target: T1, human sodium-dependent phosphate transporter 2B (NaPi2b) (human, UniProt O95436 1-690)
# T1 construct: UniProt ID is given as 095436 [sic]; also called hNaPi2b; Hu NaPi2b
# T1 sequence: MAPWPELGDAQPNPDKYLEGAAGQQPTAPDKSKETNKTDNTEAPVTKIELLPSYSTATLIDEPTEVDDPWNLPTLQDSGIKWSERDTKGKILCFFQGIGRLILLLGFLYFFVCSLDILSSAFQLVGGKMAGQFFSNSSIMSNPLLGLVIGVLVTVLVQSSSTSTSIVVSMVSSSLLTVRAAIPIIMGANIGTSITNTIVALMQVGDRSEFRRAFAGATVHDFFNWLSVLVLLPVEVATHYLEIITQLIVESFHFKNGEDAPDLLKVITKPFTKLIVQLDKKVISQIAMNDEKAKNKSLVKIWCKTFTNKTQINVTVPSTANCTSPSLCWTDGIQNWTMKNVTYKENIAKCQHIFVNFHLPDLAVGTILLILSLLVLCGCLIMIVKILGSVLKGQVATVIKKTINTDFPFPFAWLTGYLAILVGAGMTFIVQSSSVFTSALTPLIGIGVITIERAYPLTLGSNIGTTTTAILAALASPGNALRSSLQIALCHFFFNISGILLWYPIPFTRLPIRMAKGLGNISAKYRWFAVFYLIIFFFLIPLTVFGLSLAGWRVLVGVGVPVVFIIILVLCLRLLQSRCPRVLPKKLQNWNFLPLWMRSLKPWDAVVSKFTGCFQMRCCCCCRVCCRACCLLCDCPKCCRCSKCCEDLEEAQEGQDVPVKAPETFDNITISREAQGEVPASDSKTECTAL
# Assay: flow cytometry on IGROV-1 cells (endogenous NaPi2b), 24 h at 4 C, anti-human IgG Fc AF647 detection
# Description: Briefly, cells were seeded at 50,000 cells/well in conical-bottom 96-well plates and treated with test antibody for 24 hours at 4° C. to prevent internalization. […] Following incubation, cells were washed and stained with anti-Human IgG Fc AF647 conjugate (Jackson Immuno Research Labs, West Grove, PA; Cat. No. 109-605-098) at 4° C. for 30 min. Following incubation and washing, fluorescence was detected by flow cytometry on a BD LSRFortessa™ Cell Analyzer (BD Biosciences, Franklin Lake, NJ) with 1,000 minimum events collected per well. The AF647/APC-A GeoMean (fluorescence signal geometric mean, proportional to anti-Human AF647 binding) was calculated for the live cell population using FlowJo™ Version 10.8.1 (BD Biosciences, Franklin Lake, NJ) and plotted for each test antibody using GraphPad Prism Version 9 (GraphPad Software, San Diego, CA).
# The ability of the humanized antibody variants v38591 and v29456 to bind to NaPi2b expressed on cells was assessed on endogenous NaPi2b-expressing tumor cell lines IGROV-1 (ovarian adenocarcinoma) and TOV-21G (ovarian carcinoma) by flow cytometry.
# Cellular binding was performed according to methods described in Example 13.
binder,measurement,value
B1,EC50 (read off the curve),~1 nM
